The values below come from paper PMC3397996, “Ultramarine, a Chromoprotein Acceptor for Förster Resonance Energy Transfer” (PLoS ONE, 2012).

The target in one data set is HcRed. The experiment in a line: SEC; Superdex S200 10/30, 100 µl of 1 mg/ml applied, 20 mM Tris-HCl pH 8.0, 300 mM NaCl, column calibrated with molecular weight standards; self-association.
Data set [1] deals with Rtms5^F162R (Montipora efflorescens). The data set is described as above.
For data set [2], the target named is Rtms5^S125R (Montipora efflorescens). Described as above.
The target in data set [3] is Rtms5^S125R/F162P (Montipora efflorescens). The experiment in a line: SEC; gel filtration, data not shown; self-association.
Data set [4] has the same target. The experiment in a line: AUC; sedimentation velocity, 20°C, 300 mM NaCl, 20 mM Tris pH 8.0, samples at 0.1 mg/ml and 1.0 mg/ml, 40,000 rpm; self-association.
Data set [5] concerns the molecule itself. The description is as above.

HcRed gave a stoichiometry N with HcRed of 2.

Rtms5^F162R (natural protein) returned a stoichiometry N in data set [1] of 2.

In data set [2], Rtms5^S125R (natural protein) registered a stoichiometry N of 2.

Take Rtms5^S125R/F162P (natural protein): the stoichiometry N in data set [3] and in data set [4] was 2 in each case.

B1: Rtms5 (natural protein)
chain: MSVIATQMTYKVYMSGTVNGHYFEVEGDGKGRPYEGEQTVKLTVTKGGPLPFAWDILSPQCQYGSIPFTKYPEDIPDYVKQSFPEGFTWERIMNFEDGAVCTVSNDSSIQGNCFTYHVKFSGLNFPPNGPVMQKKTQGWEPHSERLFARGGMLIGNNFMALKLEGGGHYLCEFKTTYKAKKPVKMPGYHYVDRKLDVTNHNKDYTSVEQCEISIARKPVVA
notes: Cloned in pQE9N; also called wildtype Rtms5; source: E. coli BL21-DE3 (pQE9N:Rtms5), purified (Ni-NTA)
B1: the “stoichiometry N” value in data set [5] turned out to be 4.
